Measurements reported in the nanobody polyreactivity screen of Harvey et al. (2022).

test: yeast display, Sf9 membrane polyspecificity reagent, FACS + sequencing; frameworks hold sequencing errors
Method in brief: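 In a synthetic yeast display library (Saccharomyces cerevisiae BJ5465), nanobody expression was induced with galactose for 36–48 hours. FACS gates were set low and high (top ~1%) using anti-HA fluorescence for expression and streptavidin fluorescence for binding of the Sf9 membrane reagent. Each polyreactivity label is drawn from the gate of origin.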

Sequence	polyreactivity (PSR sort gate)
QVQLVESGGGLVQAGASLRLSCAASGFTFTPYAMGWYRQAPGKEREMVAAISWGDGSTYYADSVKGRFTISRDNAKNTVYLQMNSLKPEDTAVYYCAADFDFYYDWIYYYWGQGTQVTVSS	high polyreactivity
QVQLVESGGGLVQAGASLRLSCAASGFTFYSYDMGWYRQAPGKERELVAVITERGSSTYYADSVKGRFTISRDNAKNTVYLQMNSLKPEDTAVYYCAAYSEYYGVYYWGQGTLVTVSS	low polyreactivity
QVQLVESGGGLVQAGASLRLSCAASGIIVTQYAMGWYRQAPGKESEIVATFSSGGARTYYADSVKGRFTISRDNAKNTVYLQMKSQKPEDTAVYYCDARRYRGYSPPYDYCGQGTQVTVSS	high polyreactivity
QVQLVESGGGLVQAGASLRLSCAASGITFVHYAMGWYRQAPWKEREFVAAITKGGGSTSYADSVKGRFTISRDNAKNTVYLQMNSLKPEDTAVDYCAKRYWGTKYGITARFDYWGQGTQVTVSS	high polyreactivity
QVQLVESGGGLVQAGASLRLSCAASGNILRGYAMRWYRQAPGKERELVAAINRGGGSTYYADSVKVRFTISRDNAKNTVYLQMNSLKPEDTAVYYCAARYPHRGYTFDYLGQGTQVTVSS	low polyreactivity
QVQLVESGGGLVQAGASLRLSCAASGNTFIHNAMGRYRQAPGKERELVAAINWSGGRTYYADSVKGRFTISRDNAKNTVYLQMNCLKPEDTAVYYCARGTRWTYNMYYWGQGTQVTVSS	high polyreactivity
QVQLVESGGGLVQAGASLRLSCAASGRIFSFYAMGWYRQAPGKERELVAAISSGGNTYYADSVKGRFTISRDNAKNTVYLQMNSLKPEDTAVYYCATGYRKLSSRYGYWGQGTQVTVSS	high polyreactivity
QVQLVESGGGLVQAGASLRLSCAASGRISYYYTMGWYRQAPGKERELVAAISWSGGTTYYADSVKGRFTISRDNAKNTVYLQMNSLKPDDTAVYYCAAREYYTDVHGTRRYDYWGQGTQVTVSS	low polyreactivity
QVQLVESGGGLVQAGASLRLSCAASGRTFGKYAMGWYRQAPGKERELVAAITTRVVITYYADSVKGRFTISRDTAKITVYLQMNSLKPEDSADYYCAAVSIYWGQGTQVTVSS	low polyreactivity
QVQLVESGGGLVQAGASLRLSCAASGRTFPGYAMGWSRQAPGKERELVAAITYRGGSTYYADSVKGRFTISRDNAKNTVYLQMNSLKPEDTAVYYCNARHSRSRFYYWGQGTQVTVSS	high polyreactivity
QVQLVESGGGLVQAGASLRLSCAASGSILVDNAMGSYRQAPWKERELVARITGSGGSTYYADSVKGRCTISRDNAKNTVYLQMNSLKPEDTAVYYCAARRVNAGWTYGLRGNYWGQGSQVTVSS	low polyreactivity
QVQLVESGGGLVQAGASLRLSCAASGSTFPYYAMGWYRQAPGKERELVAAISGSGGTTYYADSVKGRFTISRDNAKNTVYLQMNSLKPEDTEVYYCAVDIGVGYGYYYWGQGTQVTVSS	low polyreactivity
QVQLVESGGGLVQAGASLRLSCAPSGSIFLAYAMGWYRQAPGKEREFVAALSFTDGSTYYADSVKGRFTISRDNAKNTVYLQMNSLKPEDTAVYYCNKGASPDDYDYWGQGTQVTVSS	low polyreactivity
QVQLVESGGGLVQAGASLRLSSAASGRTFRRNAKRWYRQAAGKERELVAFITGTGSTTYYADSVKGRFTISRDNAKNTVYLQMYSLKPEDTAVYYCAASSKYQDYWGQGTQVTVSS	high polyreactivity
QVQLVESGGGLVQAGASLRLSSAASGSTFKYYTMGWYRQAPGKERELVAAISFSGARTYYADSVKGRFTISRDNAKNTVYLQMNCLIPEDTAVYYCAKASSYSRRYEYWGQGTQVTVSS	high polyreactivity
QVQLVESGGGLVQAGASLSLSCAASGFTFEDYAMGWYRQAPGKERELVAAISSRGTSTYYADSVKGRFTISRDNAKNTVYLQMNSLKREDTAVYYCNIRGWYPYGYWGQGTQVTVSS	high polyreactivity
QVQLVESGGGLVQAGASRRLSCAASGSNFASYAMGWYRQAPGKERELVAAITRRGGSTDYADSVKGRFTISRDNEKYTVDLHMNLLKPEDTAVYYCPTYSYPERTGGQRTHYYWGQGTQVTVSS	high polyreactivity
QVQLVESGGGLVQAGCILRLSCAASGRTFHLNAMGWYIQAPGKEREMVAAITNSGGRTSYADSVKVRFTISRDNAKNTVYIQMNSLKPEDTAVYYFNVEVTYSSGKYYYWGQGTQVTVSS	low polyreactivity
QVQLVESGGGLVQAGCRLRLSCAASGSIIYRKAMGWYRQAPGKERQLVAAISARGGRTNYAVSVKGRFTISRDNAKNTVYLQLYSLNPEDTAVYYCNTADSWYHRSQAYDYWGQGTQVTVSS	high polyreactivity
QVQLVESGGGLVQAGCSHSLSCAASGLTFDVYTMGWYRQAPGKERELVATISQTYYADSVKGRFTISRDNAKNTVYLQMNSLKPEDTAVYYCAANGFKAQYRDIVYDYGYWGEGTQVTVSS	low polyreactivity
QVQLVESGGGLVQAGCSLRLICAASGLTFSRYTMGWYRQAPGKERELVAAISLSGGRTYYADSVKGRFTISRDNAKNTVYLQMNSLKPEDTAVYYCNARGTYHGQYYWGEGTQVTVSS	high polyreactivity
QVQLVESGGGLVQAGCSLRLICAASGSISYHNAKGWYRQAPAKEREWVAANSGDGDSTYYADSVKVRFTISRDNAKHTVYLQMNTLKPEDSAVYYSAAEPTVYFSDFVLFPSDFWGQGTQVTVSS	low polyreactivity

Sequence	polyreactivity (PSR sort gate)
QVQLVESGGGLVQAGCSLRLSCAASGFIFRLYTMGWYRQAPGKERELVARITRGDSTIYADSVKGRFTISRDNAKNTVYLQMNSLKPEDTAVYYCAKLHRGLPYYSFYRGYYYWGQGTQVTVSS	low polyreactivity
QVQLVESGGGLVQAGCSLRLSCAASGFIFWENGLGWYRQAPGKERELVAAISSGGGRTYYADSVKGRFTISRDNAKHTVYLQMNSLKPEDTAVYYCNRARYYREFDFWGQGTQVTVSS	high polyreactivity
QVQLVESGGGLVQAGCSLRLSCAASGFIFWLYAMGWYRQAPGKERELVASINWSGGDTYYADSVKGRFTISRDNAKNTVYLQMNSLKPEDTAVYYCNAIVLDSKSSFDYWGQGTQVTVSS	low polyreactivity
QVQLVESGGGLVQAGCSLRLSCAASGFTFGSYAMGWYRQAPWKEREFVAAIRRSGSSTYYADSVKGRFTISRDNAKNTVYLQMNSLKPEDTAVYFCAADVYRRLRRYRYYYLGQGTQVTVSS	low polyreactivity
QVQLVESGGGLVQAGCSLRLSCAASGITFAWYAMGWYRQAPGKERELVAAIDDRGGSTYYADSVKGRFTISRDNAKNTVYLQMNSLKPEDTAVYYCNADTPSYEPYRLDYWGQGTQVTVSS	low polyreactivity
QVQLVESGGGLVQAGCSLRLSCAASGRIFPRNVMGWYRQAPGKERELVAAISSRGTRTYYADSVKGRFTISRDNAKNTVYLQMNSLKPEDTAVYYCAADGPYEGYDYWGLGTQVTVSS	high polyreactivity
QVQLVESGGGLVQAGCSLRLSCAASGRIFQTNVMGWYRQAPGKDRELVAAISYRGGTTYYADSVKGRFTISRDNAKNTVYLQMNSLKPEDPAVYYCAALHYRIRRTGMDYWGQGTQVTVSS	low polyreactivity
QVQLVESGGGLVQAGCSLRLSCAASGRIFTGNAMGWYRQAPGKERELVAAISRSGGRTYYADSVKGRFTISRDNAKNTVYLQMNSLKPEDTAVYYCAAAGYYHTYWGTMDYWGQGTQVTVSS	high polyreactivity
QVQLVESGGGLVQAGCSLRLSCAASGRIFVAITMGRYRQAPGKERELVAAITRGTNTYYADSVKGRFTISRDNAKNTVDLQMNSLKPEDSAVYYCAARLPYNAIGYYYWGHGTQVTVSS	low polyreactivity
QVQLVESGGGLVQAGCSLRLSCAASGRIFYSNVMGWYRQAPGKERELVAAISGRTGGTYYADSVKGRFTISRDTAKNTVYLQMNSLKPEDTAVYYCAARVIYYYGSGPYDYWGQGTQVTVSS	low polyreactivity
QVQLVESGGGLVQAGCSLRLSCAASGRTFAYYAMGWYRQAPGKERELVAAISSGGGSTYYADSVKGRFTISRDNAKNTVYLQMNSLKPEDTAVYYCAKERSYSRSGGTYYYWGQGTQVTVSS	high polyreactivity
QVQLVESGGGLVQAGCSLRLSCAASGRTFGGNAMGWYRQAPGKERELVAAISKSGGRTYYADSVKGRFTISRDNAKNTVYLQMNSLKPEDTAVYYCNKVLSVSQAGGFDYWGQGTQVTVSS	high polyreactivity
QVQLVESGGGLVQAGCSLRLSCAASGRTFSTYAMGWYRQAPGKERELVAAITRRGGSTYYADSVKRRFTISRDNAKNTVYLQINSLKPEDTAVYYCETYADRPPRTPDISYVSNFDYWGQGTQVTVSS	low polyreactivity
QVQLVESGGGLVQAGCSLRLSCAASGSIFTINAMGWYREAPGKERELVAAISFGGGSTYYADSVKGRFTISRDNAKITGYLQMNSLKREDTAVYYCAAEDWWGYDYWGQGNQVTVSS	high polyreactivity
QVQLVESGGGLVQAGCSLRLSCAASGSIFYRYAMGWYRQAPGKERELVAAISRSGGRTYYADSVKGRFTISRDNAKNTVYIQMNSLKPEDTAVYNCAAESTVGTDLGGDSWGQGTQVTVSS	high polyreactivity
QVQLVESGGGLVQAGCSLRLSCAASGSIFYYYAMGWYRQAPGKERELVAAIRRSGSTTYADSVKGRFTISRDNAKNTVYLQMNSLKPEETAVYYCNVYGYGTEYDYWGQGTLVTVSS	high polyreactivity
QVQLVESGGGLVQAGCSLRLSCAASGSNFGMYTMGWYRQAPGKESELVAAISGGGGSTYYADSVKGRFTISRDTAKNTVYVQMNSLKPEDSAVYYCAAVLDLSEWYDYWGQGTQVTVSS	low polyreactivity
QVQLVESGGGLVQAGCSLRLSCAASGSTFPYNSMGWYRQAPGKERELVAAITSSGRTNYADSVKGRFTISRDNAKNTVYLQMNSLKPEDTAVYYCAAARWYAHRVDYWGQGTQVTVSS	low polyreactivity
QVQLVESGGGLVQAGCSLRLSCASSGGIFSWYAMGRYRQAPGKEREFVAAISWRGGRTYYADSVKGRFTISRDNAKNTVYLQMNSLKPEDTAVYYCAVANRAGEDDYWGQGSQVTVSS	high polyreactivity
QVQLVESGGGLVQAGCSLRLSCSASGSIFRNNAMGWYRPAHGKERELVAAITSTGTGTYYADSLKGRFTISRDNAKNTVYLQMNSLKPEDTAVYYCSVDDDFEFVYWGQGTQVTVSS	low polyreactivity
QVQLVESGGGLVQAGCSLRLSYAASGLTFRRNPLGWYRQAPGKERELVATITSVGSTNYADSVKGRFTISRDNAKNTVYLQMISLKPEDTAVYYCRTVTYGYWGQGTQVTVSS	high polyreactivity
